A short description of the data set: total protein half-life in vivo (active degradation + dilution); higher = more stable protein.
Setting [1] is: E. coli NCM3722 delta-clpP, growth: N-lim chemostat, doubling time 6 h.
Where [2] appears, read: E. coli NCM3722 delta-hslV, growth: N-lim chemostat, doubling time 6 h.
[3] abbreviates: E. coli NCM3722 delta-smpB, growth: N-lim chemostat, doubling time 6 h.
Where [4] appears, read: wild type E. coli NCM3722, growth: C-lim chemostat, doubling time 3 h.
Where [5] appears, read: wild type E. coli NCM3722, growth: C-lim chemostat, doubling time 6 h.
Where [6] appears, read: wild type E. coli NCM3722, growth: C-lim chemostat, doubling time 12 h.
The mark [7] stands for this setting: wild type E. coli NCM3722, growth: N-lim chemostat, doubling time 6 h.
The mark [8] stands for this setting: wild type E. coli NCM3722, growth: P-lim chemostat, doubling time 12 h.
The mark [9] stands for this setting: E. coli NCM3722 delta-clpP delta-lon delta-hslV, growth: N-lim chemostat, doubling time 6 h.
The mark [10] stands for this setting: E. coli NCM3722 delta-lon, growth: N-lim chemostat, doubling time 6 h.
[11] abbreviates: wild type E. coli NCM3722, growth: N-lim chemostat, doubling time 12 h.
Where [12] appears, read: wild type E. coli NCM3722, growth: P-lim chemostat, doubling time 6 h.

± gives the standard deviation of the averaged measurements.

In the case of “MTLEWWFAYLLTSIILSLSPGSGAINTMTTSLNHGYRGAVASIAGLQTGLAIHIVLVGVGLGTLFSRSVIAFEVLKWAGAAYLIWLGIQQWRAAGAIDLKSLASTQSRRHLFQRAVFVNLTNPKSIVFLAALFPQFIMPQQPQLMQYIVLGVTTIVVDIIVMIGYATLAQRIALWIKGPKQMKALNKIFGSLFMLVGALLASARHA [P0AG34]”, the “total protein half-life in vivo” value is, setting by setting: under setting [1], 2.02 h; under setting [2], 1.51 h; under setting [3], 1.73 ± 0.21 h; under setting [4], 0.913 h; under setting [5], 1.47 h; under setting [6], 2.28 h. For the same sequence, the “total protein half-life in vivo” value worked out at 2.62 h under setting [7] and 3.7 h under setting [8].

Take “MKKSLLGLTFASLMFSAGSAVAADYKIDKEGQHAFVNFRIQHLGYSWLYGTFKDFDGTFTFDEKNPAADKVNVTINTTSVDTNHAERDKHLRSADFLNTAKYPQATFTSTSVKKDGDELDITGDLTLNGVTKPVTLEAKLIGQGDDPWGGKRAGFEAEGKIKLKDFNIKTDLGPASQEVDLIISVEGVQQK [P0A8X2]”: the “total protein half-life in vivo” value under setting [9] was 5.61 ± 0.24 h; the “total protein half-life in vivo” value under setting [1] stood at 6.32 ± 0.21 h; the “total protein half-life in vivo” value under setting [2] came to 6.38 ± 0.11 h; the “total protein half-life in vivo” value under setting [10] stood at 6.59 ± 0.48 h; the “total protein half-life in vivo” value under setting [3] is 6.61 ± 1.1 h; the “total protein half-life in vivo” value under setting [4] was determined as 3.22 ± 0.24 h. Moreover, the “total protein half-life in vivo” value was 10.6 ± 4 h under setting [6]; 6.19 ± 0.62 h under setting [7]; 10.9 ± 2.2 h under setting [11]; 6.05 ± 0.28 h under setting [12]; 14 ± 1.4 h under setting [8].

Turning to “MHAYLHCLSHSPLVGYVDPAQEVLDEVNGVIASARERIAAFSPELVVLFAPDHYNGFFYDVMPPFCLGVGATAIGDFGSAAGELPVPVELAEACAHAVMKSGIDLAVSYCMQVDHGFAQPLEFLLGGLDKVPVLPVFINGVATPLPGFQRTRMLGEAIGRFTSTLNKRVLFLGSGGLSHQPPVPELAKADAHMRDRLLGSGKDLPASERELRQQRVISAAEKFVEDQRTLHPLNPIWDNQFMTLLEQGRIQELDAVSNEELSAIAGKSTHEIKTWVAAFAAISAFGNWRSEGRYYRPIPEWIAGFGSLSARTEN [P0ABR9]”, the “total protein half-life in vivo” value under setting [9] came to 5.32 h.

“MMSKINQTDIDRLIELVGGRGNIATVSHCITRLRFVLNQPANARPKEIEQLPMVKGCFTNAGQFQVVIGTNVGDYYQALIASTGQAQVDKEQVKKAARHNMKWHEQLISHFAVIFFPLLPALISGGLILGFRNVIGDLPMSNGQTLAQMYPSLQTIYDFLWLIGEAIFFYLPVGICWSAVKKMGGTPILGIVLGVTLVSPQLMNAYLLGQQLPEVWDFGMFSIAKVGYQAQVIPALLAGLALGVIETRLKRIVPDYLYLVVVPVCSLILAVFLAHALIGPFGRMIGDGVAFAVRHLMTGSFAPIGAALFGFLYAPLVITGVHQTTLAIDLQMIQSMGGTPVWPLIALSNIAQGSAVIGIIISSRKHNEREISVPAAISAWLGVTEPAMYGINLKYRFPMLCAMIGSGLAGLLCGLNGVMANGIGVGGLPGILSIQPSYWQVFALAMAIAIIIPIVLTSFIYQRKYRLGTLDIV”: the “total protein half-life in vivo” value under setting [3] is 2.51 h; the “total protein half-life in vivo” value under setting [4] stood at 2.85 ± 0.2 h; the “total protein half-life in vivo” value under setting [5] stood at 4.23 ± 0.33 h; the “total protein half-life in vivo” value under setting [6] was 6.59 ± 0.51 h; the “total protein half-life in vivo” value under setting [12] is 4.13 h; the “total protein half-life in vivo” value under setting [8] worked out at 6.92 h.

Consider “MNLNSIPAFDDNYIWVLNDEAGRCLIVDPGDAEPVLNAIAANNWQPEAIFLTHHHHDHVGGVKELVEKFPQIVVYGPQETQDKGTTQVVKDGETAFVLGHEFSVIATPGHTLGHICYFSKPYLFCGDTLFSGGCGRLFEGTASQMYQSLKKLSALPDDTLVCCAHEYTLSNMKFALSILPHDLSINDYYRKVKELRAKNQITLPVILKNERQINVFLRTEDIDLINVINEETLLQQPEERFAWLRSKKDRF [P0AC84]”, for which the “total protein half-life in vivo” value reads like this: under setting [9], 4.67 ± 0.3 h; under setting [1], 4.24 ± 0.2 h; under setting [2], 4.88 ± 0.89 h; under setting [10], 4.5351 ± 0.0033 h; under setting [3], 4.01 ± 0.41 h; under setting [4], 2.81 ± 0.13 h. The “total protein half-life in vivo” value runs as follows: under setting [5], 4.76 ± 0.13 h; under setting [6], 7.09 ± 1.1 h; under setting [7], 4.31 ± 0.21 h; under setting [11], 6.316 ± 0.03 h; under setting [12], 4.81 ± 0.13 h; under setting [8], 8.75 ± 0.89 h.

Regarding “MLKKILLLALLPAIAFAEELPAPVKAIEKQGITIIKTFDAPGGMKGYLGKYQDMGVTIYLTPDGKHAISGYMYNEKGENLSNTLIEKEIYAPAGREMWQRMEQSHWLLDGKKDAPVIVYVFADPFCPYCKQFWQQARPWVDSGKVQLRTLLVGVIKPESPATAAAILASKDPAKTWQQYEASGGKLKLNVPANVSTEQMKVLSDNEKLMDDLGANVTPAIYYMSKENTLQQAVGLPDQKTLNIIMGNK”, the “total protein half-life in vivo” value by setting is: under setting [9], 5.17 ± 0.63 h; under setting [1], 5.5 ± 0.14 h; under setting [2], 6.05 ± 0.24 h; under setting [10], 6.69 ± 1 h; under setting [3], 5.98 ± 0.33 h; under setting [4], 3.016 ± 0.006 h. For the same sequence, the “total protein half-life in vivo” value under setting [5] worked out at 6.29 ± 0.74 h; the “total protein half-life in vivo” value under setting [6] came to 11.3 ± 1.4 h; the “total protein half-life in vivo” value under setting [7] was 6.16 ± 0.33 h; the “total protein half-life in vivo” value under setting [11] was found to be 12.6 ± 0.62 h; the “total protein half-life in vivo” value under setting [12] is 5.78 ± 0.55 h; the “total protein half-life in vivo” value under setting [8] is 12.5 ± 0.27 h.

(Values after the supplement of paper PMC11246515.)
